How the values were obtained:
[1] = target: AausFP1 (Aequorea cf. australis); assay: crystal structure
[2] = target: AausFP2 (Aequorea cf. australis); assay: crystal structure

stoichiometry N [1] | stoichiometry N [2] | Substance
2 | – | AausFP1 (natural protein)
– | 2 | AausFP2 (natural protein)

— article doi:10.1101/677344
